Experimental data reported in publication PMC4753445.

Target: AKT1 substrate 1 (AKT1S1), Flag-tagged (UniProt Q96B36)
Assay: co-IP; 14-3-3 co-expressed with AKT1S1 (or 2SE) in HEK293T cells, with or without overexpressed PKM2 or PKM2 K270M; 14-3-3 co-immunoprecipitated with AKT1S1 detected by blot

Chain of 14-3-3 (P63104 whole entry): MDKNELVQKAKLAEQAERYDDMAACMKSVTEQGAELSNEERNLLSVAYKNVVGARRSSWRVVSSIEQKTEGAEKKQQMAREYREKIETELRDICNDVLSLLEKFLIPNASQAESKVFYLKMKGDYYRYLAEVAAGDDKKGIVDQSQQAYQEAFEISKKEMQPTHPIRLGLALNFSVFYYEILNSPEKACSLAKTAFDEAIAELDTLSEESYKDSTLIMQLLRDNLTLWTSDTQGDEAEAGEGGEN

14-3-3 (from UniProt P63104 1-245) (natural protein)
fold increase of the co-precipitate with PKM2 overexpressed against without PKM2: > 3 fold
